We go through 40 molecules from PMC11417369, “DNA sequence and chromatin differentiate sequence-specific transcription factor binding in the human malaria parasite Plasmodium falciparum”.

Data set [1] addresses T1, AP2-LT D1 (Plasmodium falciparum, UniProt Q8IAM1 2520-2577).
T1 sequence: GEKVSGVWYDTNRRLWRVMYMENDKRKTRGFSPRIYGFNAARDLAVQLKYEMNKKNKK
Description: gcPBM; about 25 ug protein; PBS, 1% milk, 0.2 mg/ml BSA, salmon testes DNA, 0.03% Triton X-100. Particulars: tags: N-terminal GST (pGEX-4T-1), kept; label: surface-attached array probe.

In data set [2] the target is T2, AP2-G D1 (Plasmodium falciparum, UniProt Q8I5I9 2123-2245).
T2 sequence: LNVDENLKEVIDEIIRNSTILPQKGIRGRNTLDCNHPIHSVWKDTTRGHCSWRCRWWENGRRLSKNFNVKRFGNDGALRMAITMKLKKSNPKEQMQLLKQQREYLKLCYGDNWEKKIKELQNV
The description is as above. Particulars: tags: N-terminal GST (pGEX-4T-1), kept; label: surface-attached array probe.

B1: CACACA_site8067 (dsDNA)
DNA 1: AACAAATACAGACACACACACACACTAATAAAAAAA
DNA 2: TTTTTTTATTAGTGTGTGTGTGTGTCTGTATTTGTT
For the molecule B1, the binding signal in data set [1] is 10.8 ln median PBM intensity, better of two orientations.

B2: CACACA_site493 (dsDNA)
DNA 1: AACATACAGAAACACACACACACACCCACACCCACA
DNA 2: TGTGGGTGTGGGTGTGTGTGTGTGTTTCTGTATGTT
Regarding B2, in data set [1], the binding signal was 10.6 ln median PBM intensity, better of two orientations.

B3: CACACA_site7645 (dsDNA)
DNA 1: AAAAAAAATACATACACACACACACGCACATATATA
DNA 2: TATATATGTGCGTGTGTGTGTGTATGTATTTTTTTT
Take B3: the binding signal in data set [1] was 10.7 ln median PBM intensity, better of two orientations.

B4: XGTACX_negctrl_site191 (dsDNA)
DNA 1: TTTTTAAAAAATAAGAAAAAATAAATATATTACAAA
DNA 2: TTTGTAATATATTTATTTTTTCTTATTTTTTAAAAA
Turning to B4, in data set [2], the binding signal is 9.86 ln median PBM intensity, better of two orientations.

B5: CACACA_site6473 (dsDNA)
DNA 1: AAAAAAAAAAGACACACACACACACTAATACATACA
DNA 2: TGTATGTATTAGTGTGTGTGTGTGTCTTTTTTTTTT
Consider B5, for which the binding signal in data set [1] is 10.6 ln median PBM intensity, better of two orientations.

B6: XGTACX_negctrl_site541 (dsDNA)
DNA 1: TTGTCAAAAATTACACACATAAATGAATAAATAAAT
DNA 2: ATTTATTTATTCATTTATGTGTGTAATTTTTGACAA
For B6, in data set [2], the binding signal is 9.88 ln median PBM intensity, better of two orientations.

B7: CACACA_site2202 (dsDNA)
DNA 1: CGCACCCACAGACACACACACACATATATATATATA
DNA 2: TATATATATATATGTGTGTGTGTGTCTGTGGGTGCG
As for B7, the binding signal in data set [1] was 10.8 ln median PBM intensity, better of two orientations.

B8: CACACA_site5247 (dsDNA)
DNA 1: AGGATATGCGGACACACACACATATATATATATATA
DNA 2: TATATATATATATATGTGTGTGTGTCCGCATATCCT
B8: the binding signal in data set [1] was 10.7 ln median PBM intensity, better of two orientations.

B9: CACACA_site8840 (dsDNA)
DNA 1: ATAAATAAAGGACACACACACACACTAATAAAAAAA
DNA 2: TTTTTTTATTAGTGTGTGTGTGTGTCCTTTATTTAT
Consider B9, for which the binding signal in data set [1] is 10.7 ln median PBM intensity, better of two orientations.

B10: XGTACX_negctrl_site591 (dsDNA)
DNA 1: TTTTTATATAACCTTCTTAATTCTTTTTTTTTTTTT
DNA 2: AAAAAAAAAAAAAGAATTAAGAAGGTTATATAAAAA
Regarding B10, in data set [2], the binding signal was 9.85 ln median PBM intensity, better of two orientations.

B11: CACACA_site3589 (dsDNA)
DNA 1: AATAAAAAGAAACACACACACACACCCATATATATA
DNA 2: TATATATATGGGTGTGTGTGTGTGTTTCTTTTTATT
For the molecule B11, the binding signal in data set [1] is 10.7 ln median PBM intensity, better of two orientations.

B12: XGTACX_negctrl_site385 (dsDNA)
DNA 1: TACTTCTCATTTGTTGTTGTATTTTAGGCATACCCT
DNA 2: AGGGTATGCCTAAAATACAACAACAAATGAGAAGTA
Regarding B12, the binding signal in data set [2] was 9.85 ln median PBM intensity, better of two orientations.

B13: CACACA_site5884 (dsDNA)
DNA 1: AATACATACGGACACACACACACATATATATATATA
DNA 2: TATATATATATATGTGTGTGTGTGTCCGTATGTATT
In the case of B13, the binding signal in data set [1] was 10.7 ln median PBM intensity, better of two orientations.

B14: CACACA_site906 (dsDNA)
DNA 1: AAAGGATACAGACACACACACACATATATATATATA
DNA 2: TATATATATATATGTGTGTGTGTGTCTGTATCCTTT
In the case of B14, in data set [1], the binding signal was 10.7 ln median PBM intensity, better of two orientations.

B15: CACACA_site5272 (dsDNA)
DNA 1: TATACAGATGGACACACACACATATATATATATATA
DNA 2: TATATATATATATATGTGTGTGTGTCCATCTGTATA
Turning to B15, the binding signal in data set [1] is 10.7 ln median PBM intensity, better of two orientations.

B16: CACACA_site5031 (dsDNA)
DNA 1: AGTATACTCGGACACACACACACATATATATATATA
DNA 2: TATATATATATATGTGTGTGTGTGTCCGAGTATACT
As for B16, the binding signal in data set [1] is 10.6 ln median PBM intensity, better of two orientations.

B17: CACACA_site5252 (dsDNA)
DNA 1: AACACGCGCGGACACACACACACACCCACATATATA
DNA 2: TATATATGTGGGTGTGTGTGTGTGTCCGCGCGTGTT
On to B17, for which the binding signal in data set [1] is 10.7 ln median PBM intensity, better of two orientations.

B18: CACACA_site4355 (dsDNA)
DNA 1: CACAGACACGGACACACACACACACCCACATATATA
DNA 2: TATATATGTGGGTGTGTGTGTGTGTCCGTGTCTGTG
Take B18: in data set [1], the binding signal was 10.7 ln median PBM intensity, better of two orientations.

B19: CACACA_site2919 (dsDNA)
DNA 1: TACATACAGAAACACACACACACATATATATATATA
DNA 2: TATATATATATATGTGTGTGTGTGTTTCTGTATGTA
Regarding B19, the binding signal in data set [1] was 10.8 ln median PBM intensity, better of two orientations.

B20: CACACA_site3654 (dsDNA)
DNA 1: AAAAAACAAAAACACACACACACATATATATATATA
DNA 2: TATATATATATATGTGTGTGTGTGTTTTTGTTTTTT
Take B20: the binding signal in data set [1] is 10.7 ln median PBM intensity, better of two orientations.

B21: CACACA_site8001 (dsDNA)
DNA 1: TGGGAGCACAGACACACACACACACCGATATATATA
DNA 2: TATATATATCGGTGTGTGTGTGTGTCTGTGCTCCCA
Turning to B21, the binding signal in data set [1] is 10.6 ln median PBM intensity, better of two orientations.

B22: CACACA_site5248 (dsDNA)
DNA 1: CACAGACACGGACACACACACATATATATATATATA
DNA 2: TATATATATATATATGTGTGTGTGTCCGTGTCTGTG
For B22, the binding signal in data set [1] is 10.9 ln median PBM intensity, better of two orientations.

B23: CACACA_site5883 (dsDNA)
DNA 1: TACATACACGGACACACACACATATATATATATATA
DNA 2: TATATATATATATATGTGTGTGTGTCCGTGTATGTA
Turning to B23, the binding signal in data set [1] is 10.8 ln median PBM intensity, better of two orientations.

B24: CACACA_site5894 (dsDNA)
DNA 1: AAAAGGAACGGACACACACACATATATATATATATA
DNA 2: TATATATATATATATGTGTGTGTGTCCGTTCCTTTT
In the case of B24, the binding signal in data set [1] is 10.7 ln median PBM intensity, better of two orientations.

B25: CACACA_site5249 (dsDNA)
DNA 1: CGCACAGACGGACACACACACACATATATATATATA
DNA 2: TATATATATATATGTGTGTGTGTGTCCGTCTGTGCG
As for B25, the binding signal in data set [1] was 10.7 ln median PBM intensity, better of two orientations.

B26: CACACA_site4352 (dsDNA)
DNA 1: CCCACAGACGGACACACACACACATATATATATATA
DNA 2: TATATATATATATGTGTGTGTGTGTCCGTCTGTGGG
B26: the binding signal in data set [1] is 10.6 ln median PBM intensity, better of two orientations.

B27: CACACA_site4488 (dsDNA)
DNA 1: TACAAATATGGACACACACACATATATATATATATA
DNA 2: TATATATATATATATGTGTGTGTGTCCATATTTGTA
In the case of B27, the binding signal in data set [1] was 10.7 ln median PBM intensity, better of two orientations.

B28: CACACA_site3394 (dsDNA)
DNA 1: AACAGACAGAAACACACACACATATATATATATATA
DNA 2: TATATATATATATATGTGTGTGTGTTTCTGTCTGTT
In the case of B28, the binding signal in data set [1] was 10.7 ln median PBM intensity, better of two orientations.

B29: CACACA_site6426 (dsDNA)
DNA 1: GGCATACACGAACACACACACACACGCACATATATA
DNA 2: TATATATGTGCGTGTGTGTGTGTGTTCGTGTATGCC
For the molecule B29, the binding signal in data set [1] is 10.7 ln median PBM intensity, better of two orientations.

B30: CACACA_site4493 (dsDNA)
DNA 1: GGCATACACGGACACACACACACACCGACATATATA
DNA 2: TATATATGTCGGTGTGTGTGTGTGTCCGTGTATGCC
In the case of B30, the binding signal in data set [1] was 10.6 ln median PBM intensity, better of two orientations.

B31: XGTACX_negctrl_site521 (dsDNA)
DNA 1: ATGTTATAAATCTTAATATATATATGCAAAAGAGAA
DNA 2: TTCTCTTTTGCATATATATATTAAGATTTATAACAT
Consider B31, for which the binding signal in data set [2] was 9.88 ln median PBM intensity, better of two orientations.

B32: CACACA_site499 (dsDNA)
DNA 1: CACCCACCCAGACACACACACACAAAAAAAAAAAGA
DNA 2: TCTTTTTTTTTTTGTGTGTGTGTGTCTGGGTGGGTG
Take B32: the binding signal in data set [1] is 10.6 ln median PBM intensity, better of two orientations.

B33: XGTACX_negctrl_site493 (dsDNA)
DNA 1: CATATATAAATATAAATATATATATATATATATATG
DNA 2: CATATATATATATATATATATTTATATTTATATATG
B33: the binding signal in data set [2] was 9.85 ln median PBM intensity, better of two orientations.

B34: XGTACX_negctrl_site580 (dsDNA)
DNA 1: ATACAAATTAAGCCTCAAGTTCTTTTTTTTAACATA
DNA 2: TATGTTAAAAAAAAGAACTTGAGGCTTAATTTGTAT
Regarding B34, the binding signal in data set [2] is 9.88 ln median PBM intensity, better of two orientations.

B35: XGTACX_negctrl_site59 (dsDNA)
DNA 1: AATATTACGTGTTTGGTATTTTTCGATGTTGGCAGG
DNA 2: CCTGCCAACATCGAAAAATACCAAACACGTAATATT
For B35, in data set [2], the binding signal was 9.87 ln median PBM intensity, better of two orientations.

B36: XGTACX_negctrl_site604 (dsDNA)
DNA 1: ATAAATCGATAAAATATATGCTACATGAATAAATAA
DNA 2: TTATTTATTCATGTAGCATATATTTTATCGATTTAT
As to B36, the binding signal in data set [2] is 9.88 ln median PBM intensity, better of two orientations.

B37: XGTACX_negctrl_site394 (dsDNA)
DNA 1: AGGTGAAAAATATATAATAATGTAACAAAAAAAAAT
DNA 2: ATTTTTTTTTGTTACATTATTATATATTTTTCACCT
B37: the binding signal in data set [2] was 9.88 ln median PBM intensity, better of two orientations.

B38: CACACA_site8012 (dsDNA)
DNA 1: ACATCAAGCAGACACACACACACACCCACCCACCCA
DNA 2: TGGGTGGGTGGGTGTGTGTGTGTGTCTGCTTGATGT
Consider B38, for which, in data set [1], the binding signal is 10.8 ln median PBM intensity, better of two orientations.

B39: CACACA_site6446 (dsDNA)
DNA 1: TACACGCATAGACACACACACACACGCATATAAATA
DNA 2: TATTTATATGCGTGTGTGTGTGTGTCTATGCGTGTA
As to B39, in data set [1], the binding signal was 10.7 ln median PBM intensity, better of two orientations.

B40: CACACA_site3541 (dsDNA)
DNA 1: GGAATAACCAGACACACACACACATATATATATATA
DNA 2: TATATATATATATGTGTGTGTGTGTCTGGTTATTCC
B40: the binding signal in data set [1] was 10.7 ln median PBM intensity, better of two orientations.
